Consider four sequences from the supplement of paper PMC5998384.

Data set [1] has as its system HeLa Kyoto. The experiment in a line: solubility in G1/S (NP-40 vs SDS abundance) (log2 ratio); higher = more soluble. Particulars: cell cycle stage: G1/S.
The subject of data set [2] is HeLa Kyoto. Put plainly: melting temperature (median over replicates), in situ; higher = more thermally stable.
The test system of data set [3] is HeLa Kyoto. Put plainly: solubility change mitosis vs G1/S (difference of NP-40 vs SDS log2 ratios) (log2 ratio difference); higher = more soluble in mitosis.
Data set [4] deals with HeLa Kyoto. Put plainly: thermal stability score vs G1/S (z-score of summed log2 fold changes over temperatures); higher = more thermally stable than in G1/S.
[5] abbreviates: cell cycle stage: early G1 (4.5 h after nocodazole release).
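Throughout, for melting temperature (median over replicates), in situ: HeLa Kyoto cells synchronized by double thymidine or nocodazole block, proteins quantified by TMT10plex mass spectrometry, three independent biological replicates.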
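Throughout, for solubility change mitosis vs G1/S (difference of NP-40 vs SDS log2 ratios): synchronized HeLa Kyoto cells (double thymidine block for G1/S, nocodazole release for mitosis), protein amounts in NP-40 versus SDS lysates quantified by mass spectrometry, three biological replicates.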
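Throughout, for solubility in G1/S (NP-40 vs SDS abundance): HeLa Kyoto cells arrested at G1/S by double thymidine block, proteins quantified by TMT10plex mass spectrometry in mild NP-40 versus SDS extracts, three biological replicates.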
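Throughout, for thermal stability score vs G1/S (z-score of summed log2 fold changes over temperatures): synchronized HeLa Kyoto cells, proteins quantified by TMT10plex mass spectrometry, three biological replicates, mitosis taken 0.5 h after nocodazole release, G1/S directly after double thymidine block.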

“MENHKSNNKENITIVDISRKINQLPEAERNLLENGSVYVGLNAALCGLIANSLFRRILNVTKARIAAGLPMAGIPFLTTDLTYRCFVSFPLNTGDLDCETCTITRSGLTGLVIGGLYPVFLAIPVNGGLAARYQSALLPHKGNILSYWIRTSKPVFRKMLFPILLQTMFSAYLGSEQYKLLIKALQLSEPGKEIH [TMEM126A]”: in data set [1], the “solubility in G1/S (log2)” value was 0.245. For the same sequence, the melting temperature in data set [2] (cell cycle stage: G1/S) is 52.8 °C; in data set [2] (cell cycle stage: mitosis), 52.4 °C. For the same sequence, the “solubility change mitosis (log2)” value in data set [3] is -0.094. Moreover, the thermal stability score is -0.173 in data set [4] (setting [5]) and -0.978 in data set [4] (cell cycle stage: mitosis).

With “MEPEEERIRYSQRLRGTMRRRYEDDGISDDEIEGKRTFDLEEKLHTNKYNANFVTFMEGKDFNVEYIQRGGLRDPLIFKNSDGLGIKMPDPDFTVNDVKMCVGSRRMVDVMDVNTQKGIEMTMAQWTRYYETPEEEREKLYNVISLEFSHTRLENMVQRPSTVDFIDWVDNMWPRHLKESQTESTNAILEMQYPKVQKYCLMSVRGCYTDFHVDFGGTSVWYHIHQGGKVFWLIPPTAHNLELYENWLLSGKQGDIFLGDRVSDCQRIELKQGYTFVIPSGWIHAVYTPTDTLVFGGNFLHSFNIPMQLKIYNIEDRTRVPNKFRYPFYYEMCWYVLERYVYCITNRSHLTKEFQKESLSMDLELNGLESGNGDEEAVDREPRRLSSRRSVLTSPVANGVNLDYDGLGKTCRSLPSLKKTLAGDSSSDCSRGSHNGQVWDPQCAPRKDRQVHLTHFELEGLRCLVDKLESLPLHKKCVPTGIEDEDALIADVKILLEELANSDPKLALTGVPIVQWPKRDKLKFPTRPKVRVPTIPITKPHTMKPAPRLTPVRPAAASPIVSGARRRRVRCRKCKACVQGECGVCHYCRDMKKFGGPGRMKQSCVLRQCLAPRLPHSVTCSLCGEVDQNEETQDFEKKLMECCICNEIVHPGCLQMDGEGLLNEELPNCWECPKCYQEDSSEKAQKRKMEESDEEAVQAKVLRPLRSCDEPLTPPPHSPTSMLQLIHDPVSPRGMVTRSSPGAGPSDHHSASRDERFKRRQLLRLQATERTMVREKENNPSGKKELSEVEKAKIRGSYLTVTLQRPTKELHGTSIVPKLQAITASSANLRHSPRVLVQHCPARTPQRGDEEGLGGEEEEEEEEEEEDDSAEEGGAARLNGRGSWAQDGDESWMQREVWMSVFRYLSRRELCECMRVCKTWYKWCCDKRLWTKIDLSRCKAIVPQALSGIIKRQPVSLDLSWTNISKKQLTWLVNRLPGLKDLLLAGCSWSAVSALSTSSCPLLRTLDLRWAVGIKDPQIRDLLTPPADKPGQDNRSKLRNMTDFRLAGLDITDATLRLIIRHMPLLSRLDLSHCSHLTDQSSNLLTAVGSSTRYSLTELNMAGCNKLTDQTLIYLRRIANVTLIDLRGCKQITRKACEHFISDLSINSLYCLSDEKLIQKIS [KDM2A]”, in data set [1], the “solubility in G1/S (log2)” value is -1.07. The melting temperature worked out at 52.3 °C in data set [2] (cell cycle stage: G1/S) and 50.5 °C in data set [2] (cell cycle stage: mitosis). In addition, in data set [3], the “solubility change mitosis (log2)” value was 0.642. Further, the thermal stability score in data set [4] (setting [5]) is 0.0512; in data set [4] (cell cycle stage: mitosis), -0.325.

For the sequence “MEPPYSLTAHYDEFQEVKYVSRCGAGGARGASLPPGFPLGAARSATGARSGLPRWNRREVCLLSGLVFAAGLCAILAAMLALKYLGPVAAGGGACPEGCPERKAFARAARFLAANLDASIDPCQDFYSFACGGWLRRHAIPDDKLTYGTIAAIGEQNEERLRRLLARPGGGPGGAAQRKVRAFFRSCLDMREIERLGPRPMLEVIEDCGGWDLGGAEERPGVAARWDLNRLLYKAQGVYSAAALFSLTVSLDDRNSSRYVIRIDQDGLTLPERTLYLAQDEDSEKILAAYRVFMERVLSLLGADAVEQKAQEILQVEQQLANITVSEHDDLRRDVSSMYNKVTLGQLQKITPHLRWKWLLDQIFQEDFSEEEEVVLLATDYMQQVSQLIRSTPHRVLHNYLVWRVVVVLSEHLSPPFREALHELAQEMEGSDKPQELARVCLGQANRHFGMALGALFVHEHFSAASKAKVQQLVEDIKYILGQRLEELDWMDAETRAAARAKLQYMMVMVGYPDFLLKPDAVDKEYEFEVHEKTYFKNILNSIRFSIQLSVKKIRQEVDKSTWLLPPQALNAYYLPNKNQMVFPAGILQPTLYDPDFPQSLNYGGIGTIIGHELTHGYDDWGGQYDRSGNLLHWWTEASYSRFLRKAECIVRLYDNFTVYNQRVNGKHTLGENIADMGGLKLAYHAYQKWVREHGPEHPLPRLKYTHDQLFFIAFAQNWCIKRRSQSIYLQVLTDKHAPEHYRVLGSVSQFEEFGRAFHCPKDSPMNPAHKCSVW [ECEL1]”, in data set [1], the “solubility in G1/S (log2)” value is -0.0684. For the same sequence, the melting temperature stood at 52.9 °C in data set [2] (cell cycle stage: G1/S) and 52.1 °C in data set [2] (cell cycle stage: mitosis). Moreover, in data set [3], the “solubility change mitosis (log2)” value is -0.124. For the same sequence, the thermal stability score in data set [4] (setting [5]) came to 0.162; in data set [4] (cell cycle stage: mitosis), 2.03.

Consider “MEPRAVAEAVETGEEDVIMEALRSYNQEHSQSFTFDDAQQEDRKRLAELLVSVLEQGLPPSHRVIWLQSVRILSRDRNCLDPFTSRQSLQALACYADISVSEGSVPESADMDVVLESLKCLCNLVLSSPVAQMLAAEARLVVKLTERVGLYRERSFPHDVQFFDLRLLFLLTALRTDVRQQLFQELKGVRLLTDTLELTLGVTPEGNPPPTLLPSQETERAMEILKVLFNITLDSIKGEVDEEDAALYRHLGTLLRHCVMIATAGDRTEEFHGHAVNLLGNLPLKCLDVLLTLEPHGDSTEFMGVNMDVIRALLIFLEKRLHKTHRLKESVAPVLSVLTECARMHRPARKFLKAQVLPPLRDVRTRPEVGEMLRNKLVRLMTHLDTDVKRVAAEFLFVLCSESVPRFIKYTGYGNAAGLLAARGLMAGGRPEGQYSEDEDTDTDEYKEAKASINPVTGRVEEKPPNPMEGMTEEQKEHEAMKLVTMFDKLSRNRVIQPMGMSPRGHLTSLQDAMCETMEQQLSSDPDSDPD [RIC8A]”, for which, in data set [1], the “solubility in G1/S (log2)” value was -0.322. Further, the values for the melting temperature in data set [2] (cell cycle stage: G1/S) and in data set [2] (cell cycle stage: mitosis) were 51.6 °C and 49.6 °C, respectively. The “solubility change mitosis (log2)” value in data set [3] was 0.342. The thermal stability score in data set [4] (setting [5]) was 1.87; in data set [4] (cell cycle stage: mitosis), -0.505.
